Values quoted from earlier work in PMC10818705.

Biological target: Tyr109 (UniProt position 129, EGEHFYFFCTF)

Substance: Azurin, His107/Tyr109 (Lys122) hopping variant (Pseudomonas aeruginosa; W48F;Y72F;Y108F;H83Q;Q107H;M109Y)
- pKa: 10.2 ± 0.3
